According to patent publication US20040241165A1 (Takeda / Millennium, published 2004):
No end group written: not given here.

Assays:
[1] = molecular target: human-type OT7T022 (hOT7T022) G protein-coupled receptor protein (human) (UniProt Q9GZQ6); test: cell-based or functional assay
[2] = molecular target: human-type OT7T022 (hOT7T022) G protein-coupled receptor protein (human) (UniProt Q9GZQ6); test: binding inhibition: displacement of 125I-Tyr-hRFRP-3(8) from membrane fraction of human-type OT7T022-expressing CHO cells
[3] = molecular target: T1, human-type OT7T022 (hOT7T022) G protein-coupled receptor protein (human, UniProt Q9GZQ6 1-430); test: as above
T1 construct: Expressed on CHO cells (cAMP assays); also called human OT7T022 receptor
Experimental: An assay buffer [50 mM Tris-HCl, pH 7.5, 5 mM EDTA, 0.1% bovine serum albumin (Sigma), 0.5 mM PMSF (Wako Purechemical Industries), 20 μg/ml leupeptin (Peptide Institute, Inc.), 0.1 μg/ml pepstatin A (Peptide Institute, Inc.), 4 μg/ml E64 (Peptide Institute, Inc.) and 10 mM MgCl₂] was prepared. With this buffer, the membrane fraction from human-type OT7T022-expressing CHO cells was diluted to give a concentration of 1 μg/25 μl. […] Sample solutions prepared, NSB and the assay buffer were dispensed into polypropylene 96-well plates in quadruplicate as total 50 μl/well. […] Twenty-five microliter of the membrane fraction solution from human-type OT7T022-expressing CHO cells was added thereto, agitated with a plate mixer and incubated at room temperature for 1.5 hr. Using a cell harvester for 96-well plates, the contents of each well were adsorbed onto a filter unit (GF/C, treated with polyethylene imine) pre-moisturized with washing buffer (50 mM Tris-HCl, pH 7.5). After washing 5 times with the washing buffer, the adsorbate was dried thoroughly. The lower part of the filter unit was sealed. Then, 50 μl of liquid scintillator was added to each well and the upper part of the filter unit was sealed. Radioactivity was measured with a Top Count (Packard), and data were analyzed in triplicate.

[4] = molecular target: T1, human-type OT7T022 (hOT7T022) G …; test: cell-based or functional assay
[5] = molecular target: T1, human-type OT7T022 (hOT7T022) G …; test: cell-based or functional assay; remark: listed apart in the source
[6] = molecular target: G protein-coupled receptor protein rOT7T022L (rat, UniProt Q9EP86 1-432); test: cell-based or functional assay
Chain of G protein-coupled receptor protein rOT7T022L (Q9EP86 whole entry): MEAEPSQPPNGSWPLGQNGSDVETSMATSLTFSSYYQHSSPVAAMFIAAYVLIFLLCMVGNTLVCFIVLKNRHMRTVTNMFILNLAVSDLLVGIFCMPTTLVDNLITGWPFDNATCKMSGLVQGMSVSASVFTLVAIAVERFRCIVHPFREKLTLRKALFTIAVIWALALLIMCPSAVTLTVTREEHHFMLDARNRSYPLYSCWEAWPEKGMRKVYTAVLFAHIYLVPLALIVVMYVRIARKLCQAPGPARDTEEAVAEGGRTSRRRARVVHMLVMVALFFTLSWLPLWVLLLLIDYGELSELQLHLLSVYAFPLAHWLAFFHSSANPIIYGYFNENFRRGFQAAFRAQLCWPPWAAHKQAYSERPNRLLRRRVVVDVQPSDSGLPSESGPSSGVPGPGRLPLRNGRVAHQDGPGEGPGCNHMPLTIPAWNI

T1 sequence (Q9GZQ6 whole entry): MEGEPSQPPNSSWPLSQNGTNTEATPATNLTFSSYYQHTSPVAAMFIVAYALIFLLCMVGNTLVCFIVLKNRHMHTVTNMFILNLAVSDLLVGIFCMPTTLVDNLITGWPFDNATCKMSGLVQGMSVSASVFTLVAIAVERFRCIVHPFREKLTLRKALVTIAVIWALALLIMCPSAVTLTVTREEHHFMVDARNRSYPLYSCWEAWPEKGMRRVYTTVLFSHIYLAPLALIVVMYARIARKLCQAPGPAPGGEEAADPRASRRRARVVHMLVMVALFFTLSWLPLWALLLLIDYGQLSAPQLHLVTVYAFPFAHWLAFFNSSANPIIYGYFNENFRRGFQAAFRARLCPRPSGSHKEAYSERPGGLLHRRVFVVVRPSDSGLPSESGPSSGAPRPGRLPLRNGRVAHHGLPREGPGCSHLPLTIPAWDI
Chain of human-type OT7T022 (hOT7T022) G protein-coupled receptor protein (human) (Q9GZQ6 whole entry): as above

Row | Molecule | IC50 [3] [nM] | cAMP production inhibition EC50 [4] [nM] | ED50, inhibition of intracellular cAMP increase by forskolin treatment [5] [nM] | also measured
1 | hRFRP-3 (28) (second row with this label, last row of Table 1) (peptide) | – | – | – | cAMP production inhibition EC50 [1]: 4.1 nM; IC50 [2]: 1.6 nM
2 | NLPQRF-NH2 [Asn-Leu-Pro-Gln-Arg-Phe-NH2: hRFRP-3(6)] | 2.6 | 37 | – | –
3 | PQRF-NH2 [PQRF amide (Pro-Gln-Arg-Phe-NH2)] | – | – | ≥ 1000 | –
4 | PNLPQRF-NH2 [Pro-Asn-Leu-Pro-Gln-Arg-Phe-NH2: hRFRP-3(7)] | 0.62 | 3.2 | – | –
5 | SAGATANLPLRSGRNMEVSLVRRVPNLPQRF-NH2 (also called hRFRP-3 (31)) [human-type RFRP-3(31)] | 1.3 | 4.8 | – | –
6 | SVTFQELKDWGAKKDIKMSPAPANKVPHSAANLPLRF (ends and bridges not checked) [rRFRP-1-37] | – | – | 30 | –
7 | MPHSFANLPLRF-NH2 [Met-Pro-His-Ser-Phe-Ala-Asn-Leu-Pro-Leu-Arg-Phe-NH2 (MPHSFANLPLRF amide)] | – | – | 4.5 | cAMP production inhibitory effect, IC50 [6]: 0.5 nM
8 | ATANLPLRSGRNMEVSLVRRVPNLPQRF-NH2 (also called hRFRP-3 (28)) [human-type RFRP-3(28)] | 1.1 | 5.1 | – | –
9 | SLNFEELKDWGPKNVIKMSTPAVNKMPHSFANLPLRF-NH2 [hRFRP-1-37] | – | – | 21 | –
